This is an account of results in publication doi:10.1101/2025.06.12.659319, “A bipartite, mutation-tolerant NLS regulates interaction of ΔNp63α with importin alpha, nuclear transport and transcriptional activity” (bioRxiv, 2025).

The target in the experiment is mouse IMPα2ΔIBB (importin α2 lacking the IMPβ1 binding domain) (mouse, UniProt P52293 70-529). The experiment in a line: crystal structure; IMPα2ΔIBB crystals (hanging drop, 650 mM sodium citrate, 100 mM HEPES pH 6.5, 10 mM DTT, 23°C) soaked with the peptide; 2.20 Å. Particulars: both partners purified.

Where no end group is shown, it is not given here. The star is where a group is joined. FITC = O=C1OC2(c3ccc(O)cc3Oc3cc(O)ccc32)c2ccc(NC(=S)*)cc21

B1: FITC-ΔNp63α NLSbip peptide (residues 278-302) (peptide)
peptide: {FITC}-DGTKRPFRQNTHGIQMTSIKKRRSP
notes: ΔNp63α (p63), human, residues 278-302, bipartite NLS; numbers count on: the ΔNp63α isoform (Q9H3D4-2); also called p63 NLS; source: synthetic peptide (GenScript)
Consider B1, for which the binding result is “binds”.
